{"source": "the supplement of paper PMC12042874", "note": "± gives the uncertainty stated by the source.", "data": [{"assay": "amyloid nucleation score (Sup35N fusion, yeast selection) (log enrichment); library NNK1; higher = more nucleation; inactive = no reads after selection", "summary_of_the_method": "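Plasmid inserts were Illumina-sequenced at input and output from psi-negative yeast expressing Sup35N fused to peptides of 20 random codons. The yeast were induced with 100 μM copper sulfate for 24 hours and grown 7 days at 30°C on medium lacking adenine and uracil, and sequences with under 100 input reads were excluded. Nucleation score is the DiMSum log enrichment of output over input reads, centred on the mode score of non-aggregating sequences.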", "values": [{"substance": "MKTMRKW", "amyloid nucleation score": "inactive"}, {"substance": "NRLATLVDVTVMQSNTFELL", "amyloid nucleation score": "0.748 ± 0.35"}, {"substance": "PGLDFLGLLHQLISVFAIRL", "amyloid nucleation score": "0.111 ± 0.48"}, {"substance": "THFRCH", "amyloid nucleation score": "0.762 ± 0.8"}, {"substance": "LLPRGESHVKLKDRGSRMPW", "amyloid nucleation score": "0.921 ± 0.5"}, {"substance": "DLADNVRKMGEFTSSVANIL", "amyloid nucleation score": "0.204 ± 0.4"}, {"substance": "DSMYF", "amyloid nucleation score": "0.367 ± 0.53"}, {"substance": "HVWRDGSE", "amyloid nucleation score": "1.82 ± 0.54"}, {"substance": "SRVSLRRQCYVRVNGLCLYI", "amyloid nucleation score": "1.84 ± 0.3"}, {"substance": "GSERPNPV", "amyloid nucleation score": "0.958 ± 0.63"}, {"substance": "NACGQVLCWYL", "amyloid nucleation score": "8.816 ± 0.058"}, {"substance": "IVVNIYVRWYPVGTGWDYLT", "amyloid nucleation score": "inactive"}, {"substance": "NFRHFILVYLMPFT", "amyloid nucleation score": "inactive"}, {"substance": "YCEYILGFCFEMYAFGNRSP", "amyloid nucleation score": "0.573 ± 0.62"}, {"substance": "RNTVQYVFYPQDLWWSAGVQ", "amyloid nucleation score": "5.429 ± 0.048"}, {"substance": "CIVNMNRGWISIDLLRD", "amyloid nucleation score": "5.78 ± 0.073"}, {"substance": "LFLSSCLNSGLGGTL", "amyloid nucleation score": "0.105 ± 0.29"}, {"substance": "LHRRSDNGESFWTEGSITFV", "amyloid nucleation score": "-0.086 ± 0.25"}, {"substance": "VVVVDDHDDVALSFIHTMSR", "amyloid nucleation score": "0.164 ± 0.43"}, {"substance": "RRRMFSCLDPEVWEVQRGRV", "amyloid nucleation score": "-0.348 ± 0.68"}, {"substance": "VVYHAFDALLNLCRSSYRGH", "amyloid nucleation score": "-0.811 ± 0.52"}, {"substance": "YIRIMLGMMPNLRERSRTRV", "amyloid nucleation score": "inactive"}, {"substance": "YYPGSGFH", "amyloid nucleation score": "-0.531 ± 0.65"}, {"substance": "LRNVSFSDFVYWSGFFRGVV", "amyloid nucleation score": "inactive"}, {"substance": "STWLLGQRRYPRHKERGRAR", "amyloid nucleation score": "0.101 ± 0.35"}, {"substance": "DGDVE", "amyloid nucleation score": "-0.494 ± 0.74"}, {"substance": "PGYQTSWWYMLKCKTSSLNY", "amyloid nucleation score": "0.468 ± 0.47"}, {"substance": "CSSKGCLVSESFLHLMTNLC", "amyloid nucleation score": "0.969 ± 0.42"}, {"substance": "TGASLLVAHRTYSEIILRCD", "amyloid nucleation score": "0.606 ± 0.49"}, {"substance": "VIMLVNDAFVGI", "amyloid nucleation score": "-0.543 ± 0.26"}, {"substance": "LLIEWRLDSGWCTTGSENRD", "amyloid nucleation score": "-0.347 ± 0.4"}, {"substance": "KGWWKGLRARSQGPGVSDVW", "amyloid nucleation score": "-0.314 ± 0.57"}, {"substance": "QVSANSY", "amyloid nucleation score": "3.59 ± 0.082"}, {"substance": "FIIPDRVRFLKGMTSFVNSS", "amyloid nucleation score": "-0.349 ± 1"}, {"substance": "SHRRGVKSTFLMRRLHYMWY", "amyloid nucleation score": "0.168 ± 0.62"}, {"substance": "EVEQVHLFSAVINSWCGDVF", "amyloid nucleation score": "0.575 ± 0.41"}, {"substance": "SWAWIACIGAMNPEN", "amyloid nucleation score": "-0.478 ± 1.4"}, {"substance": "TNVKQQACRLRSS", "amyloid nucleation score": "4.83 ± 0.063"}, {"substance": "DKGVFAMDKRITMVEFLS", "amyloid nucleation score": "-0.87 ± 1.3"}, {"substance": "KVQIY", "amyloid nucleation score": "-0.968 ± 0.36"}, {"substance": "FFRIACL", "amyloid nucleation score": "-0.704 ± 0.45"}, {"substance": "KFIDFERLFSLRGWSVCNER", "amyloid nucleation score": "0.889 ± 0.24"}, {"substance": "YECKVYKSK", "amyloid nucleation score": "0.466 ± 0.47"}, {"substance": "LVWGFFSHRM", "amyloid nucleation score": "2.37 ± 0.14"}, {"substance": "IINKS", "amyloid nucleation score": "-0.766 ± 2.4"}, {"substance": "LVVIVTPWKYSEP", "amyloid nucleation score": "6.58 ± 0.086"}, {"substance": "EITVAVSDYGVGSTWSG", "amyloid nucleation score": "0.381 ± 0.84"}, {"substance": "KHQGNMTTINNKRAARLLGP", "amyloid nucleation score": "inactive"}, {"substance": "IWGKC", "amyloid nucleation score": "-0.644 ± 0.76"}, {"substance": "ASVVQVTGRGSVGMVFPCCS", "amyloid nucleation score": "-0.558 ± 0.56"}, {"substance": "RTDWYGEDWHYV", "amyloid nucleation score": "-1.31 ± 1.4"}, {"substance": "WTLCMPKCGWRQSFSLRSRR", "amyloid nucleation score": "-0.294 ± 0.47"}, {"substance": "ASFLRNVFWVIREYTLCEYV", "amyloid nucleation score": "0.647 ± 0.19"}, {"substance": "VFFSKI", "amyloid nucleation score": "1.08 ± 0.53"}, {"substance": "TKYCFPFNFQGSLHQWRRRF", "amyloid nucleation score": "0.972 ± 0.52"}, {"substance": "VWGQRGSGSNSCLEW", "amyloid nucleation score": "0.15 ± 0.68"}, {"substance": "RTEVIKMNLG", "amyloid nucleation score": "-0.085 ± 0.42"}, {"substance": "DLEPWWACLAKGSSGLISYV", "amyloid nucleation score": "0.396 ± 0.38"}, {"substance": "EKVGLTCQRGIVLVDNIFMQ", "amyloid nucleation score": "6.986 ± 0.045"}, {"substance": "DDHSLQPRLPLE", "amyloid nucleation score": "inactive"}, {"substance": "LVIALSQTDAYGELVSRNMC", "amyloid nucleation score": "1.06 ± 0.97"}, {"substance": "WCDGYVMFLDTNCIRINHIL", "amyloid nucleation score": "-0.162 ± 0.24"}, {"substance": "TRNFKQK", "amyloid nucleation score": "-1.78 ± 1.8"}, {"substance": "GAFEGVFHRVMSDGRGAFAR", "amyloid nucleation score": "-0.289 ± 0.42"}, {"substance": "LFSWICEN", "amyloid nucleation score": "0.142 ± 0.28"}, {"substance": "PCSSVLLEHWSRYASRCEMV", "amyloid nucleation score": "1.28 ± 0.58"}, {"substance": "CVWNYCAWFTVARNTTLFNN", "amyloid nucleation score": "-0.508 ± 0.89"}, {"substance": "LGRHLMILTYQYEEDFPKYR", "amyloid nucleation score": "0.938 ± 0.16"}, {"substance": "RWSLAWKIMCEL", "amyloid nucleation score": "0.055 ± 0.3"}, {"substance": "TSKGCQ", "amyloid nucleation score": "inactive"}, {"substance": "AWRIIPGILAFTFEEM", "amyloid nucleation score": "-0.428 ± 0.79"}, {"substance": "HHHLNYTINIRQSYFVMCGG", "amyloid nucleation score": "5 ± 0.071"}, {"substance": "GGMLQLSSSDFTRWAQEWSI", "amyloid nucleation score": "0.355 ± 0.73"}, {"substance": "RSSSYNSLIRKISDKLVGAA", "amyloid nucleation score": "1.09 ± 0.56"}, {"substance": "MCTLDLD", "amyloid nucleation score": "0.824 ± 0.54"}, {"substance": "TGVCTGECWYRGLVQSCSGA", "amyloid nucleation score": "-0.239 ± 0.53"}, {"substance": "RGSMSEWNILYVYASIYKGD", "amyloid nucleation score": "1.6 ± 0.42"}, {"substance": "SYPKGGLPCGWIRTPPWRFH", "amyloid nucleation score": "0.42 ± 0.59"}, {"substance": "GVVSFNFDSLQF", "amyloid nucleation score": "-0.471 ± 0.65"}, {"substance": "TRTPAWGWFPQST", "amyloid nucleation score": "-0.105 ± 0.81"}, {"substance": "YSLSPTKLGFSERLDSNEVV", "amyloid nucleation score": "0.225 ± 0.62"}, {"substance": "DRYYAGF", "amyloid nucleation score": "0.464 ± 0.55"}, {"substance": "YKEFVLYILYRLGLMIRKA", "amyloid nucleation score": "inactive"}, {"substance": "SNEYLCYYMSTNA", "amyloid nucleation score": "-0.345 ± 0.39"}, {"substance": "LFFEVMHTFMLNMEFLLRFI", "amyloid nucleation score": "-1.12 ± 0.94"}, {"substance": "DASTEITGLAPGFSTTVGRM", "amyloid nucleation score": "-0.536 ± 0.81"}, {"substance": "SFFGFMVMTSRDDRFRLQ", "amyloid nucleation score": "3.04 ± 0.085"}]}]}
